Assay results taken from patent US20120316071A1 (published 2012).

Assays:
[1] = target: T1, rHuman Notch-1/Fc Chimera, CF (R&D Systems Cat#3647-TK) (human, UniProt P46531 19-526); assay: MSD Multispot ECL, antigen spotted on plate, Fab in solution; blank spot of the row 337
T1 construct: Bought recombinant Fc chimera; Fc part of the bought chimera not given

[2] = target: T2, rHuman HGF R/c-MET/Fc Chimera, CF (R&D Systems Cat#358-MT/CF) (human, UniProt P08581 25-932); assay: as above
T2 construct: Bought recombinant Fc chimera; also called HGF R/Fc; hepatocyte growth factor receptor; Fc part of the bought chimera not given

[3] = target: T3, rHuman EGF R/Fc Chimera, CF (R&D Systems Cat#344-ER) (human, UniProt P00533 25-645); assay: as above
T3 construct: Bought recombinant Fc chimera; also called epidermal growth factor receptor; Fc part of the bought chimera not given

[4] = target: T4, rHuman CD44/Fc Chimera, CF (R&D Systems Cat#3660-CD) (human, UniProt P16070 21-220); assay: as above
T4 construct: Bought recombinant Fc chimera; Fc part of the bought chimera not given

[5] = target: T5, rHuman P-Cadherin/Fc Chimera, CF (R&D Systems Cat#861-PC) (human, UniProt P22223 108-654); assay: as above
T5 construct: Bought recombinant Fc chimera; Fc part of the bought chimera not given

[6] = target: T6, Recombinant Human DLL4 (R&D Systems Cat#1506-D4/CF) (human, UniProt Q9NR61 27-524); assay: as above
T6 construct: Bought recombinant protein; also called delta-like protein 4; Delta-like 4

[7] = target: T7, rHuman Erythropoietin R/Fc Chimera, CF (R&D Systems Cat#963-ER) (human, UniProt P19235 25-250); assay: as above
T7 construct: Bought recombinant Fc chimera; also called EPO R; EPO R/Fc; Fc part of the bought chimera not given
T7 sequence (looked up): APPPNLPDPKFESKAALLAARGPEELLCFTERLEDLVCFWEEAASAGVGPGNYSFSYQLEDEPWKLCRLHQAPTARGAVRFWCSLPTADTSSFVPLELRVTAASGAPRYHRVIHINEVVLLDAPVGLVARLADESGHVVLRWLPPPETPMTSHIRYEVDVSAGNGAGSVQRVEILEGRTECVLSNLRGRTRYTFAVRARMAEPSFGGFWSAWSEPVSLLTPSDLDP

[8] = target: T1, rHuman Notch-1/Fc Chimera, CF (R&D …); assay: MSD Multispot ECL, antigen spotted on plate, Fab in solution; blank spot of the row 300
[9] = target: T2, rHuman HGF R/c-MET/Fc Chimera, CF (R&D …); assay: as above
[10] = target: T3, rHuman EGF R/Fc Chimera, CF (R&D …); assay: as above
[11] = target: T5, rHuman P-Cadherin/Fc Chimera, CF (R&D …); assay: as above
[12] = target: T7, rHuman Erythropoietin R/Fc Chimera, CF …; assay: as above
[13] = target: T1, rHuman Notch-1/Fc Chimera, CF (R&D …); assay: MSD Multispot ECL, antigen spotted on plate, Fab in solution; blank spot of the row 373
[14] = target: T2, rHuman HGF R/c-MET/Fc Chimera, CF (R&D …); assay: as above
[15] = target: T3, rHuman EGF R/Fc Chimera, CF (R&D …); assay: as above
[16] = target: T4, rHuman CD44/Fc Chimera, CF (R&D Systems …); assay: as above
[17] = target: T5, rHuman P-Cadherin/Fc Chimera, CF (R&D …); assay: as above
[18] = target: T6, Recombinant Human DLL4 (R&D Systems …); assay: as above
[19] = target: T7, rHuman Erythropoietin R/Fc Chimera, CF …; assay: as above
[20] = target: T1, rHuman Notch-1/Fc Chimera, CF (R&D …); assay: MSD Multispot ECL, antigen spotted on plate, Fab in solution; blank spot of the row 297
[21] = target: T2, rHuman HGF R/c-MET/Fc Chimera, CF (R&D …); assay: as above
[22] = target: T3, rHuman EGF R/Fc Chimera, CF (R&D …); assay: as above
[23] = target: T5, rHuman P-Cadherin/Fc Chimera, CF (R&D …); assay: as above
[24] = target: T6, Recombinant Human DLL4 (R&D Systems …); assay: as above
[25] = target: T7, rHuman Erythropoietin R/Fc Chimera, CF …; assay: as above
[26] = target: T1, rHuman Notch-1/Fc Chimera, CF (R&D …); assay: MSD Multispot ECL, antigen spotted on plate, Fab in solution; blank spot of the row 316
[27] = target: T2, rHuman HGF R/c-MET/Fc Chimera, CF (R&D …); assay: as above
[28] = target: T3, rHuman EGF R/Fc Chimera, CF (R&D …); assay: as above
[29] = target: T4, rHuman CD44/Fc Chimera, CF (R&D Systems …); assay: as above
[30] = target: T5, rHuman P-Cadherin/Fc Chimera, CF (R&D …); assay: as above
[31] = target: T6, Recombinant Human DLL4 (R&D Systems …); assay: as above
[32] = target: T7, rHuman Erythropoietin R/Fc Chimera, CF …; assay: as above

T2 sequence (P08581 25-932, change not shown): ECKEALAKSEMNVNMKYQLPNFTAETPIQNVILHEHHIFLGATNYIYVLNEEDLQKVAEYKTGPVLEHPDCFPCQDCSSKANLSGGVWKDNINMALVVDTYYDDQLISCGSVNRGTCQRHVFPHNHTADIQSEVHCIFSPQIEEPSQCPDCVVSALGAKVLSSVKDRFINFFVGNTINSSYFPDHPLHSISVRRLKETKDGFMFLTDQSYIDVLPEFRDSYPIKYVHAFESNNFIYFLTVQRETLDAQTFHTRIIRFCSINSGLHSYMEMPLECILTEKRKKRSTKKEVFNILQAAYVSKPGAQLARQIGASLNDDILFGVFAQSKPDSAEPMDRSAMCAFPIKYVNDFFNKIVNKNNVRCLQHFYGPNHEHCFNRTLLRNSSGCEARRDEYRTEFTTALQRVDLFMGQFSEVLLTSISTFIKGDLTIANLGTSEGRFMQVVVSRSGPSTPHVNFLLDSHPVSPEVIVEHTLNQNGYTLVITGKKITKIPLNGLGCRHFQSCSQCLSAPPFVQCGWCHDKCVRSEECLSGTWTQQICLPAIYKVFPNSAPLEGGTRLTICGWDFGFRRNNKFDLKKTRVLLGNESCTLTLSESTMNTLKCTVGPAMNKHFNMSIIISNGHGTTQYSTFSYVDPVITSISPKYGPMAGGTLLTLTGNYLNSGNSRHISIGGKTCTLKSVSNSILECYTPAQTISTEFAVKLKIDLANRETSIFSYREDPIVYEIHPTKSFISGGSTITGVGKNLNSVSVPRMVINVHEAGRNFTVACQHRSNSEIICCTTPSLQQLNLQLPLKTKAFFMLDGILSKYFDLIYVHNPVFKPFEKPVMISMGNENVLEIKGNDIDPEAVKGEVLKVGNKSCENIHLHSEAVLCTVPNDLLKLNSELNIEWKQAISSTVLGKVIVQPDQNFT

B1: Fab VH5-51_IGHD5-18*01>3_IGHJ4*01 G100K/G104T F29A & V3-4_IGLJ1*01 (Fab, V domains shown)
VH: EVQLVQSGAEVKKPGESLKISCKGSGYSATSYWIGWVRQMPGKGLEWMGIIYPGDSDTRYSPSFQGQVTISADKSISTAYLQWSSLKASDTAMYYCARRKYSYTYDYFDYWGQGTLVTVSS
VL: QTVVTQEPSFSVSPGGTVTLTCGLSSGSVSTSYYPSWYQQTPGQAPRTLIYSTNTRSSGVPDRFSGSILGNKAALTITGAQADDESDYYCVLYMGSGISYVFGTGTKVTVL
notes: Fab made in E. coli; VH cloned into Plasmid A (CH1, His6 and Flag tags), lambda VL into Plasmid E (lambda CL); also called KT F29A
- ECL signal [1]: 601
- ECL signal [2]: 985
- ECL signal [3]: 887
- ECL signal [4]: 621
- ECL signal [5]: 502
- ECL signal [6]: 22900
- ECL signal [7]: 586

B2: Fab VH5-51_IGHD5-18*01>3_IGHJ4*01 G100K/G104T I34A & V3-4_IGLJ1*01 (Fab, V domains shown)
VH: EVQLVQSGAEVKKPGESLKISCKGSGYSFTSYWAGWVRQMPGKGLEWMGIIYPGDSDTRYSPSFQGQVTISADKSISTAYLQWSSLKASDTAMYYCARRKYSYTYDYFDYWGQGTLVTVSS
VL: QTVVTQEPSFSVSPGGTVTLTCGLSSGSVSTSYYPSWYQQTPGQAPRTLIYSTNTRSSGVPDRFSGSILGNKAALTITGAQADDESDYYCVLYMGSGISYVFGTGTKVTVL
notes: Fab made in E. coli; VH cloned into Plasmid A (CH1, His6 and Flag tags), lambda VL into Plasmid E (lambda CL); also called KT I34A
- ECL signal [8]: 564
- ECL signal [9]: 1080
- ECL signal [10]: 883
- ECL signal [11]: 349
- ECL signal [12]: 505

B3: Fab VH5-51_IGHD5-18*01>3_IGHJ4*01 G100K/G104T G24A & V3-4_IGLJ1*01 (Fab, V domains shown)
VH: EVQLVQSGAEVKKPGESLKISCKASGYSFTSYWIGWVRQMPGKGLEWMGIIYPGDSDTRYSPSFQGQVTISADKSISTAYLQWSSLKASDTAMYYCARRKYSYTYDYFDYWGQGTLVTVSS
VL: QTVVTQEPSFSVSPGGTVTLTCGLSSGSVSTSYYPSWYQQTPGQAPRTLIYSTNTRSSGVPDRFSGSILGNKAALTITGAQADDESDYYCVLYMGSGISYVFGTGTKVTVL
notes: Fab made in E. coli; VH cloned into Plasmid A (CH1, His6 and Flag tags), lambda VL into Plasmid E (lambda CL); also called KT G24A
- ECL signal [13]: 493
- ECL signal [14]: 803
- ECL signal [15]: 757
- ECL signal [16]: 547
- ECL signal [17]: 212
- ECL signal [18]: 45500
- ECL signal [19]: 551

B4: Fab VH5-51_IGHD5-18*01>3_IGHJ4*01 G100K/G104T G35A & V3-4_IGLJ1*01 (Fab, V domains shown)
VH: EVQLVQSGAEVKKPGESLKISCKGSGYSFTSYWIAWVRQMPGKGLEWMGIIYPGDSDTRYSPSFQGQVTISADKSISTAYLQWSSLKASDTAMYYCARRKYSYTYDYFDYWGQGTLVTVSS
VL: QTVVTQEPSFSVSPGGTVTLTCGLSSGSVSTSYYPSWYQQTPGQAPRTLIYSTNTRSSGVPDRFSGSILGNKAALTITGAQADDESDYYCVLYMGSGISYVFGTGTKVTVL
notes: Fab made in E. coli; VH cloned into Plasmid A (CH1, His6 and Flag tags), lambda VL into Plasmid E (lambda CL); also called KT G35A
- ECL signal [20]: 400
- ECL signal [21]: 939
- ECL signal [22]: 760
- ECL signal [23]: 305
- ECL signal [24]: 53600
- ECL signal [25]: 506

B5: Fab VH5-51_IGHD5-18*01>3_IGHJ4*01 G100K/G104T S28A & V3-4_IGLJ1*01 (Fab, V domains shown)
VH: EVQLVQSGAEVKKPGESLKISCKGSGYAFTSYWIGWVRQMPGKGLEWMGIIYPGDSDTRYSPSFQGQVTISADKSISTAYLQWSSLKASDTAMYYCARRKYSYTYDYFDYWGQGTLVTVSS
VL: QTVVTQEPSFSVSPGGTVTLTCGLSSGSVSTSYYPSWYQQTPGQAPRTLIYSTNTRSSGVPDRFSGSILGNKAALTITGAQADDESDYYCVLYMGSGISYVFGTGTKVTVL
notes: Fab made in E. coli; VH cloned into Plasmid A (CH1, His6 and Flag tags), lambda VL into Plasmid E (lambda CL); also called KT S28A
- ECL signal [26]: 432
- ECL signal [27]: 1040
- ECL signal [28]: 839
- ECL signal [29]: 497
- ECL signal [30]: 317
- ECL signal [31]: 35400
- ECL signal [32]: 586
